Measured values published in patent US20130190246A1 (PURDUE RESEARCH FOUNDATION, published 2013).
Where no end group is shown, it is not given here. The star is where a group is joined. Dansyl = CN(C)c1cccc2c(S(=O)(=O)*)cccc12

How the values were obtained:
[1] = biological target: collagen (type and supplier not stated; Examples 11 and 12); assay: fluorescence plate assay, collagen-coated wells, binding curve from the data of FIG. 4
Description: (§1) Binding assays were done in a 96-well high-binding plate, black with a clear bottom (Costar). Collagen was compared to untreated wells and BSA coated wells. Collagen and BSA were immobilized at 37° C. for 1 hr by incubating 90 μL/well at concentrations of 2 mg/mL in 10 mM HCl and 1×PBS, respectively. Each well was washed 3× with 1×PBS after incubating. Z-SILY was dissolved in 1×PBS at concentrations from 100 μM to 10 nM in 10-fold dilutions. Wells were incubated for 30 min at 37° C. and rinsed 3× with PBS and then filled with 90 μL of 1×PBS. Fluorescence readings were taken on an M5 Spectramax Spectrophotometer (Molecular Devices) at excitation/emission wavelengths of 335 nm/490 nm respectively.

[2] = biological target: collagen (type and supplier not stated; Examples 11 and 12); assay: fluorescence plate binding assay, dansyl label, collagen coated on 96-well plate
Description: as §1

EC50 (read off the curve) [1]: ~900 nM
Kd [2]: 860 nM
B1: Dansyl-GRRANAALKAGELYKSILYGC (Z-SILY) (peptide)
peptide: Dansyl-GRRANAALKAGELYKSILYGC
notes: Fluorescently labelled version of SILY; also called dansyl-modified peptide SILY
